Measurements published in US20260234285A1 (University of Texas, published 2026).

T1: human PD-L2 (PDCD1LG2) expressed on cells (human, UniProt Q9BQ51 20-273)
T1 construct: also called PDCD1LG2 (PD-L2); PD-L2 CHO cells
T1 sequence: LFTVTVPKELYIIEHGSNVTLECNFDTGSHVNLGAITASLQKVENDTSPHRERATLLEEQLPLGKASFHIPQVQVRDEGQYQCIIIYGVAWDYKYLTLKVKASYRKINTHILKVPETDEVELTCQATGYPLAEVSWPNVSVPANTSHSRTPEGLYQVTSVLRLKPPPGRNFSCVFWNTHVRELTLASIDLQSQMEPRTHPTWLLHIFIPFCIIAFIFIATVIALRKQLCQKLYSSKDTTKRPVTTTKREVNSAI

T2: Human PD-L2-Fc (Homo sapiens, UniProt Q9BQ51)
T2 construct: Antigen in Octet IgG KD Human PD-L2-Fc (M) Avid
T2 sequence (PD-L2-Fc fusion chain, looked up): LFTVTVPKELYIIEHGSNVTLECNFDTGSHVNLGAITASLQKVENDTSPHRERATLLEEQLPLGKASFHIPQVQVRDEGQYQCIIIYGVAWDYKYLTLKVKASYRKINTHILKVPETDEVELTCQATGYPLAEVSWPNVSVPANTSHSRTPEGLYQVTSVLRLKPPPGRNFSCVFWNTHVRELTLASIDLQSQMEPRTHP

T3: human PD-L2 protein (monomeric, soluble analyte) (human, UniProt Q9BQ51 20-220)
T3 construct: Recombinant human PD-L2 protein used as analyte on Octet or Biacore; a soluble form would lack the transmembrane part; also called monomeric PD-L2; monomeric human ligand
T3 sequence: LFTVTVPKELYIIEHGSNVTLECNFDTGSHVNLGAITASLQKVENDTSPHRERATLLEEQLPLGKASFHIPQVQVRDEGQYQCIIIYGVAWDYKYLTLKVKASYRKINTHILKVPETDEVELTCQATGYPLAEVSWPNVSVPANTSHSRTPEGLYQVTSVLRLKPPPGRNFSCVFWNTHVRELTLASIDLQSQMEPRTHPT

T4: mPD-L2 dimer (Mus musculus, UniProt Q9WUL5)
T4 construct: also called mouse PD-L2 protein
T4 sequence (PD-L2 chain, looked up): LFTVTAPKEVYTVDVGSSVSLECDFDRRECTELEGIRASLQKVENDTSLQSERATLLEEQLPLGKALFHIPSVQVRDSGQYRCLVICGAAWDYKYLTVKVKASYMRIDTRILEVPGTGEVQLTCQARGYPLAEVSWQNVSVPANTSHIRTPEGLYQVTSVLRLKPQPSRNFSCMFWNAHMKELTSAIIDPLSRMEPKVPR


Legend:
Human INSR BioVendor = target: T5, Human INSR BioVendor (Homo sapiens, UniProt P06213-2); test: Octet, IgG KD, monovalent format, human INSR BioVendor
T5 construct: recombinant soluble protein used in Octet, monovalent format; Antigen of the column Octet IgG KD Human INSR BioVendor (M) Monovalent

[1] = target: T6, INSR isoform long, over-expressed on HEK293 cells (human, UniProt P06213 28-1382); test: flow cytometry on live transfected HEK293 cells, dose range 0-300 µg/mL
T6 construct: whole, on cells; Long isoform of the UniProt entry; also called INSR long isoform
Method: (§1) Human HEK293 cells were transfected with expression vectors encoding ZsGreen1 only, or ZsGreen1 and CD274 (PD-L1), PDCD1LG2 (PD-L2), INSR isoform long, INSR Isoform short or CD20 (assay control). […] Cells were washed, and incubated with the same AF647 anti-human IgG Fc detection antibody as used in the cell microarray screens. Cells were again washed, and analyzed by flow cytometry using an Accuri flow cytometer (BD). A 7AAD live/dead dye was used to exclude dead cells in the analysis, and ZsGreen+ (transfected) cells were selected for analysis.
(§2) Interactions were then investigated by flow cytometry.

[2] = target: T7, human PD-L1 (CD274) expressed on cells (human, UniProt Q9NZQ7 19-290); test: as above
T7 construct: also called CD274 (PD-L1); PD-L1 CHO cells
Method: as §1, §2

[3] = target: T1, human PD-L2 (PDCD1LG2) expressed on …; test: as above
Method: as §1, §2

Human PD-L2-Fc [4] = target: T2, Human PD-L2-Fc; test: Octet, IgG KD, avid format, human PD-L2-Fc
[5] = target: T8, human PD-L1 protein (monomeric, soluble analyte) (human, UniProt Q9NZQ7 19-238); test: Biacore, IgG KD, monovalent format, human PD-L1-His
T8 construct: Recombinant human PD-L1 protein used as analyte on Octet or Biacore; also called monomeric PD-L1; monomeric human ligand

[6] = target: T1, human PD-L2 (PDCD1LG2) expressed on …; test: cell-based or functional assay
[7] = target: T7, human PD-L1 (CD274) expressed on cells; test: cell-based or functional assay
Human PD-L2-Fc [8] = target: T2, Human PD-L2-Fc; test: Octet, column hPD-L2 dimer; unit Molar from the legend
[9] = target: T8, human PD-L1 protein (monomeric, soluble …); test: Octet, monomeric human ligand
[10] = target: T3, human PD-L2 protein (monomeric, soluble …); test: Octet, monomeric human ligand
Human PD-L1-Fc [11] = target: T9, Human PD-L1-Fc (Homo sapiens, UniProt Q9NZQ7); test: Octet, IgG KD, avid format, human PD-L1-Fc
T9 construct: Antigen in Octet IgG KD Human PD-L1-Fc (M) Avid

Human PD-L1-Fc [12] = target: T9, Human PD-L1-Fc; test: Octet, column hPD-L1 dimer; unit Molar from the legend
mPD-L2 dimer = target: T4, mPD-L2 dimer; test: Octet, column mPD-L2 dimer; unit Molar from the legend
Method: (§3) Antibody Characterization. Antibody candidates generated from yeast-surface display screening were tested for the capacity to bind to PD-L1 or PD-L2.

[13] = target: T3, human PD-L2 protein (monomeric, soluble …); test: Biacore, IgG KD, monovalent format, human PD-L2-His
mPD-L1 dimer = target: T10, mPD-L1 dimer (Mus musculus, UniProt Q9EP73); test: Octet, column mPD-L1 dimer; unit Molar from the legend
T10 construct: also called mouse PD-L1 protein
Method: as §3

[14] = target: T8, human PD-L1 protein (monomeric, soluble …); test: Octet, IgG KD, monovalent format, human PD-L1-His
[15] = target: T3, human PD-L2 protein (monomeric, soluble …); test: Octet, IgG KD, monovalent format, human PD-L2-His

T8 sequence (Q9NZQ7 19-238 limits assumed): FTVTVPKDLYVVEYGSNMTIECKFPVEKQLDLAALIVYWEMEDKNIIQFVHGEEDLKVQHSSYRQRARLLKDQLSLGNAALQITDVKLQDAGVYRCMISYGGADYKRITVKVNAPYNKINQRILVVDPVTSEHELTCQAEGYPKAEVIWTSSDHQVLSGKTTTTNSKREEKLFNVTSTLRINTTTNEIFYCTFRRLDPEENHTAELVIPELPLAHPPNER
T9 sequence (Q9NZQ7 19-239 limits assumed): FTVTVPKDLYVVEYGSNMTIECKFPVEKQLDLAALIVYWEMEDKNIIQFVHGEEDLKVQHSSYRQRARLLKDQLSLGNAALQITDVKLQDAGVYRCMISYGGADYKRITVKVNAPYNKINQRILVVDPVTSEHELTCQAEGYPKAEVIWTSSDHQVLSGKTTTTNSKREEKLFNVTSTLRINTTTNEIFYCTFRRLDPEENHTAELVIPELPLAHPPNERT
T7 sequence (Q9NZQ7 19-290 limits assumed): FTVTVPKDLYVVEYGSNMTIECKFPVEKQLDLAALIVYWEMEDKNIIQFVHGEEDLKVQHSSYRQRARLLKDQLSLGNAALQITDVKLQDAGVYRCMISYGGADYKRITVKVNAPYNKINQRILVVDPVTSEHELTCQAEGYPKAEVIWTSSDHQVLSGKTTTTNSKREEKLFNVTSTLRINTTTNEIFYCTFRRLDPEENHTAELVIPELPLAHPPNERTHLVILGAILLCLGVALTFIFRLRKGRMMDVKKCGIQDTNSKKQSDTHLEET
T10 sequence (Q9EP73 19-238 limits assumed): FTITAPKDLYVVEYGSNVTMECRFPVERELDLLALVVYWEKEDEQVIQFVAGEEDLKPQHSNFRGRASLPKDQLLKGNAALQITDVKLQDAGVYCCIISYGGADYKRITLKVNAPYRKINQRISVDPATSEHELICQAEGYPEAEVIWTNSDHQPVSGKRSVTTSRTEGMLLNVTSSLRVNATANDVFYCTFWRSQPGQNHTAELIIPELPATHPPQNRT

Binder	binding result (Human INSR BioVendor)	EC50 [1] [µg/mL]	EC50 [2] [µg/mL]	EC50 [3] [µg/mL]	Kd (Human PD-L2-Fc [4]) [nM]	Kd [5] [nM]	EC50 (read off the curve) [6] [nM]	EC50 (read off the curve) [7] [nM]	Kd (Human PD-L2-Fc [8]) [nM]	Kd [9] [nM]	Kd [10] [nM]	Kd (Human PD-L1-Fc [11]) [nM]	Kd (Human PD-L1-Fc [12]) [nM]	Kd (mPD-L2 dimer) [nM]	Kd [13] [nM]	Kd (mPD-L1 dimer) [nM]	Kd [14] [nM]	Kd [15] [nM]
ADI-37464 (antibody, V domains shown) VH: QVQLQQWGAGLLKPSETLSLTCAVYGGSLSGYPWSWIRQPPGKGLEWIGETDVSGWTDYNPSLKSRVTISVDTSKNQFSLKLSSVTAADTAVYYCARDGRRMGTPSFDIWGQGTMVTVSS VL: DIQMTQSPSSVSASVGDRVTITCRASQGINSFLAWYQQKPGKAPKLLIYAASSLNSGVPSRFSGSGSGTDFTLTISSLQPEDFATYYCQKAVYFPPTFGGGTKVEIKR	–	–	–	–	0.426	2.76	–	–	–	–	–	1.52	–	–	0.508	–	6.23	1.6
ADI-38004 (antibody, V domains shown) VH: QVQLQQWGAGLLKPSETLSLTCAVYGGSLSGYPWSWIRQPPGKGLEWIGETDVSGWTDYNPSLKSRVTISVDTSKNQFSLKLSSVTAADTAVYYCARDGRRMGTPSFDIWGQGTMVTVSS VL: DIQMTQSPSSVSASVGDRVTITCRASQGISSFLAWYQQKPGKAPKLLIYAASSLNSGVPSRFSGSGSGTDFTLTISSLQPEDFATYYCQSAVYFPPTFGGGTKVEIKR	–	–	–	–	0.597	37.7	–	–	–	–	–	1.22	–	–	1.24	–	20	2.84

Further lines, results first:

binding result (Human INSR BioVendor)	EC50 [1] [µg/mL]	EC50 [2] [µg/mL]	EC50 [3] [µg/mL]	Kd (Human PD-L2-Fc [4]) [nM]	Kd [5] [nM]	EC50 (read off the curve) [6] [nM]	EC50 (read off the curve) [7] [nM]	Kd (Human PD-L2-Fc [8]) [nM]	Kd [9] [nM]	Kd [10] [nM]	Kd (Human PD-L1-Fc [11]) [nM]	Kd (Human PD-L1-Fc [12]) [nM]	Kd (mPD-L2 dimer) [nM]	Kd [13] [nM]	Kd (mPD-L1 dimer) [nM]	Kd [14] [nM]	Kd [15] [nM]	Binder
no binding	145	0.03	0.1	0.601	3.76	~0.5	~1	0.601	7.62	1.9	1.28	1.28	0.7	0.727	3.2	–	–	ADI-38002 (antibody, human IgG1, kappa, V domains shown, Human IgG1 (GASDIE); Some in vivo work used a mouse IgG2a form; also called Ab-38002; test antibody 38002) VH: QVQLQQWGAGLLKPSETLSLTCAVYGGSLSGYPWSWIRQPPGKGLEWIGETDVSGWTDYNPSLKSRVTISVDTSKNQFSLKLSSVTAADTAVYYCARDGRRMGTPSFDIWGQGTMVTVSS VL: DIQMTQSPSSVSASVGDRVTITCRASQDINSFLAWYQQKPGKAPKLLIYAASSLNSGVPSRFSGSGSGTDFTLTISSLQPEDFATYYCQKSVYFPPTFGGGTKVEIKR
–	–	–	–	0.377	8.09	–	–	–	–	–	1.27	–	–	0.175	–	14.2	1.02	ADI-38003 (antibody, V domains shown) VH: QVQLQQWGAGLLKPSETLSLTCAVYGGSLSGYPWSWIRQPPGKGLEWIGETDVSGWTDYNPSLKSRVTISVDTSKNQFSLKLSSVTAADTAVYYCARDGRRMGTPSFDIWGQGTMVTVSS VL: DIQMTQSPSSVSASVGDRVTITCRASKGISSFLAWYQQKPGKAPKLLIYAASSLNSGVPSRFSGSGSGTDFTLTISSLQPEDFATYYCQKAVYFPPTFGGGTKVEIKR
